What was measured:
[1] = target: T1, trastuzumab (Herceptin); assay: ELISA screen of colony lysate on coated trastuzumab, 40 h with 1 uM 1HE, high-affinity panning
T1 construct: also called Tmab; not shown: the constant regions

[2] = target: T1, trastuzumab (Herceptin); assay: competition on SKOV3 cells, 125I-trastuzumab with increasing 1HE, cell-associated radioactivity
Protocol: Points represent the mean of triplicate samples with standard deviation error bars.
(§1) SKOV3 cells (ATCC, HTB-77) were grown in complete McCoys 5a media to confluency in a T75 flask and dissociated using 50 μM EDTA. […] Cells were incubated at 4° C. for 90 minutes to reach binding equilibrium followed by 4 washes with 1 mL of 1% BSA PBS buffer to remove non-specific radioactivity. Cell-associated radioactivity was assessed through gamma counting.

[3] = target: T1, trastuzumab (Herceptin); assay: dissociation ELISA on covalently immobilised trastuzumab
Protocol: (§2) Individual mutants were expressed and purified using a nickel chromatography resin, as previously described (16). […] The following day, unreacted sites were blocked with 10 mM ethanolamine in a 100 mM sodium bicarbonate buffer pH 9.5 for one hour. Purified mutants were incubated for one hour and subsequently washed three times with wash buffer. Following washing, 0.1% BSA PBS solution was added to the initial timepoint wells. […] At individual time points, the buffer in the time point wells was removed by pipetting, and the wells washed three times with wash buffer and 0.1% BSA PBS added. At the terminal time point, all wells were washed three times with wash buffer, and secondary antibodies added at the dilutions listed above for one hour at room temperature. Following secondary incubation, plates were washed three times with wash buffer and three times with dH₂O. 250 μl of 4 mg/ml PnPP in a 10 mM diethanolamine pH 9.8 buffer was added to each well, and absorbance values read for 10 minutes at 30-second intervals. The change in absorbance per minute for each well was divided by the average change in absorbance per minute for the initial time point wells, and the resulting dissociation curves fit to a monoexponential decay function in GraphPad Prism 7 (GraphPad, San Diego, Calif.). Each time point was run in triplicate for each mutant.

[4] = target: T1, trastuzumab (Herceptin); assay: competition on SKOV3 cells, 200 pM 125I-trastuzumab with increasing 1HE, 4 C, 90 minutes, gamma counting
Protocol: as §1
(§3) An optimal range was 10 pM to 10 nM.

[5] = target: T1, trastuzumab (Herceptin); assay: inferred from the IC50 of the SKOV3 cell competition assay with 200 pM 125I-trastuzumab
Protocol: as §1, §3

[6] = target: T1, trastuzumab (Herceptin); assay: SPR, trastuzumab immobilized by amine coupling, 10-hour dissociation, 1:1 Langmuir fit
Protocol: (§4) A mobile phase of 0.05% Tween-20 PBS pH 7.4 was used at a flow rate of 25 μL/minute. […] Association and dissociation rate constants were determined using a 1:1 Langmuir binding model in the biosensor data analysis software Scrubber (BioLogic Software, Canberra, Australia).
as §3

[7] = target: T1, trastuzumab (Herceptin); assay: SPR, trastuzumab immobilized by amine coupling, 1HE at 10, 20 and 35 nM, 1:1 Langmuir fit
Protocol: as §4, §3

[8] = target: T1, trastuzumab (Herceptin); assay: dissociation ELISA on covalently immobilised trastuzumab, 1 uM 1HE in the buffer
Protocol: as §2

[9] = target: T1, trastuzumab (Herceptin); assay: dissociation ELISA on covalently immobilised trastuzumab, 500 nM trastuzumab in the buffer
Protocol: as §2

[10] = target: T1, trastuzumab (Herceptin); assay: dissociation ELISA, trastuzumab covalently immobilized, 1 uM 1HE in buffer to block rebinding, monoexponential fit
Protocol: as §2

[11] = target: T1, trastuzumab (Herceptin); assay: ELISA screen of colony lysate on coated trastuzumab, low-affinity panning

B1: 2D7 (VHH)
VHH: EVQLVESGGGLVQAGDSLTLSCAASGRTFSSVAMGWFRQAPGKERKFVANISWNGDSTYYTDSVKGRFTISRDNAKNTVYLQMSSLKPEDTAVYYCAADVRWAGDGHRADYWGQGTQVTVSS
estimated half-life [1]: 43.5 h

B2: 1HE, anti-idiotypic camelid single domain antibody against trastuzumab (VHH)
VHH: EVQLVESGGGLVQAGDSLTLSCAASGRTFSSVAMGWFRQAPGKERKFVANISWNGDSTYYTDSVKGRFTISRDNAKNTVYLQMSSLKPEDTAVYYCAADVRWTGDGHRADYWGQGTQVTVSS
notes: also called wild-type 1HE; cold-1HE
IC50 [2]: 0.129 nM
T1/2 [3]: 17.4 h
IC50 [4]: 0.122 nM
Kd [5]: ≤ 0.122 nM
half-life of dissociation [6]: 26.6 h
Kd [7]: 0.0335 nM

B3: 2H2 (VHH)
VHH: EVQLVESGDGLVQAGDSLTLSCAASGRAFSSVAMGWFRQAPGKERKFVANISWNGDSTYYTDSVKGRFTISRDNAKNTVYLQMSSLKPEDTAVYYCAADVRWTGDGHRADYWGQGTQVTVSS
notes: also called 1HE mutant 2H2
T1/2 [8]: 5.4 h
estimated half-life [1]: 26.9 h

B4: 1G11 (VHH)
VHH: EVQLVESGGDLVQAGDSLTLSCAASGRTFSGVAMGWFRQAPGKERKFVANISWNGVSTYYTDSVKGRFTISRDNAKNTVYLQMSSLKPEDTAVYYCAADVRWTGDGHRADYWGQGTQVTVSS
T1/2 [9]: 35.1 h

B5: 1C3 (VHH)
VHH: EVQLVESGGGLVQAGDSLTLSCAASGRTFSSVAMGWFRQAPGKERKFVANISWNGDSTYYTDSVKGRFTISRDNAKNTVYLQMSSLKPEDTAVYYCVADVRWTGDGHRADYWGQGTQVTVSS
T1/2 [9]: 12.1 h

B6: 2G2 (VHH)
VHH: EVQLVESGGGLVQAGDSLTLSCAASGRTFSSVAMGWFRQAPGKERKFVANISWNGDSTYYTDSVKGRFTISRDNAKNTVYLQMSSLKPEDTAVYYCAADVRWTGDGHRADNWGQGTQVTVSS
estimated half-life [1]: 15.7 h

B7: 2E11 (VHH)
VHH: EVQLVESGGGLVQAGDSLTLSCAASGRTFSSVAMGWFRQAPGKERKFVANISWNGDSTYYTDSVKGRFTISRDNAKNTVYLQMSSLEPEDTAVYYCAADVRWTGDGHRADYWGQGTQVTVSS
notes: also called 1HE mutant 2E11
estimated half-life [1]: 17.7 h

B8: 2F9 (VHH)
VHH: EVQLVESGGGLVQAGDSLTLSCAASGRTFSSVAMGWFRQAPGKERKFVANISWNGDSTYYTDSVKGRFTISRDNAKNTVYLQMSSLKPEDTAVYYCAADVRWTGEGHRADYWGQGTQVTVSS
notes: also called 1HE mutant 2F9
T1/2 [8]: 55.5 h
estimated half-life [1]: 30.8 h

B9: 1F3 (VHH)
VHH: EVQLVESGGGLVQAGDSLTLSCAASGRTFSSVAMGWFRQAPGKERKFVANISWNGYSTYYTDSVKGRFTISRDNAKNTVYLQMSSLKPEDTAVYYCAADVRWTGDGHRADYWGQGTQVTVSS
T1/2 [9]: 5.1 h

B10: 1HE mutant 2E10 (L18Q, T103A) (VHH)
VHH: EVQLVESGGGLVQAGDSQTLSCAASGRTFSSVAMGWFRQAPGKERKFVANISWNGDSTYYTDSVKGRFTISRDNAKNTVYLQMSSLKPEDTAVYYCAADVRWAGDGHRADYWGQGTQVTVSS
estimated half-life [1]: 35.7 h
estimated binding half-life [10]: 482 h

B11: 1E10 (VHH)
VHH: EVQLVESGGGLVQAGAGLTLSCAASGRTFSSVAMGWFRQAPGKERKFVANISWNGDSTYYTDSVKGRFTISRDNAKNTVYLQMSSLKPEDTAVYYCAADVRWTGDGHRADYWGQGTQVTVSS
notes: also called 1HE mutant 1E10
estimated half-life [11]: 19.3 h

B12: 1G1 (VHH)
VHH: EVQLVESGGGLVQAGDSLTLSCAASGRTFSSVAMGWFRQAPGKERKFVANISWDGGSTYYTDSVKGRFTISRDSAKNTVYLQMSSLKPEDTAVYYCAADVRWTGDGHRADYWGQGTQVTVSS
T1/2 [9]: 12.1 h

B13: 2A4 (VHH)
VHH: EVQLVESGGGLVQAGDSLTLSCAASGRTFSSVAMGWFRQAPGKERKFVANISWNGDSAYYTDSVKGRFTISRDNAKNTVYLQMSSLKPEDTAVYYCAADVRWTGDGHRADYWGQGTQVTVSS
notes: also called 1HE mutant 2A4
T1/2 [8]: 187 h
estimated half-life [1]: 70.8 h

B14: 2D11 (VHH)
VHH: EVQLVESGGGLVQAGDSLTLSCAASGRTFSSVAMGWFRQAPGKERKFVANISWNGDSTYYTDSVKGRFTISRDNARNTVYLQMSSLKPEDTAVYYCAADVRWTGDGHRADYWGQGTQVTVSS
notes: also called 1HE mutant 2D11
T1/2 [8]: 8.8 h
estimated half-life [1]: 29.6 h

B15: 2C4 (VHH)
VHH: EVQLVESGGGLVQAGDSLTLSCAASGRTFSSVAMGWFRQAPGKERKFVANISWNGDSTYYTDSVKGRFTISRDNAKNTVYLQMSSLKPEDTAVYYCAADVRWAGDGHRADYWGQGTLVTVSS
notes: also called 1HE mutant 2C4
T1/2 [8]: 84.1 h
